Experimental data as given in the supplement of paper PMC10567573.

B1: FBF1 (parent)
chain: QLQCSPAELQAELLHSQARLAELE

Variants of: B1
Assay: protein stability index of a GFP-peptide fusion (GPS, HEK-293T) (PSI 1-6); higher = more stable
Settings: c terminus: a fixed tail appended
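Note: lentivirally expressed fusions sorted by FACS into six bins by GFP to DsRed ratio, PSI derived from sequencing read proportions per bin multiplied by bin number.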

First: QLQCSPAELQAELLESQARLAELE
Second: QLQCSPAELQAELLNSQARLAELE
The protein stability index of the first is higher: 3.81 for the first, 2.81 for the second.

First: QLQCSPAELQAELLSSQARLAELE
Second: QLQCSPAELQAELLCSQARLAELE
The protein stability index of the first is lower: 2.52 for the first, 2.88 for the second.

Going from QLQCSPAELQAELLWSQARLAELE to QLQCSPAELQAELLMSQARLAELE, the protein stability index falls from 2.65 to 2.22.

Going from QLQCSPAELQAELLRSQARLAELE to QLQCSPAELQAELLFSQARLAELE, the protein stability index falls from 2.73 to 1.84.

Going from QLQCSPAELQAELLDSQARLAELE to QLQCSPAELQAELLASQARLAELE, the protein stability index rises from 3.28 to 3.78.

Going from QLQCSPAELQAELLKSQARLAELE to QLQCSPAELQAELLISQARLAELE, the protein stability index falls from 3.49 to 1.87.

Compared with QLQCSPAELQAELLHSQARWAELE, QLQCSPAELQAELLHSQARGAELE is higher in protein stability index: 4.22 for the first, 4.74 for the second.

Going from QLQCSPAELQAELLHSQAREAELE to QLQCSPAELQAELLHSQARAAELE, the protein stability index rises from 4.63 to 4.91.

First: QLQCSPAELQAELLHSQARPAELE
Second: QLQCSPAELQAELLHSQARHAELE
The protein stability index of the first is higher: 4.76 for the first, 4.05 for the second.

Compared with QLQCSPAELQAELLHSQARVAELE, QLQCSPAELQAELLHSQARRAELE is higher in protein stability index: 3.34 for the first, 4.62 for the second.

Going from QLQCSPAELQAELLHSQARQAELE to QLQCSPAELQAELLHSQARFAELE, the protein stability index falls from 5.33 to 3.37.

Compared with QLQCSPAELQAELLHSQARMAELE, QLQCSPAELQAELLHSQARNAELE is higher in protein stability index: 3.87 for the first, 4.96 for the second.

Going from QLQCSPAELQAELLHSQARCAELE to QLQCSPAELQAELLHSQARIAELE, the protein stability index rises from 3.35 to 3.59.

QLQCSPAELQAELLHSQARKAELE and QLQCSPAELQAELLHSQARTAELE are the same in protein stability index: 4.66 for the first, 4.66 for the second.

Compared with QLQCSPAELQAELLHSQARDAELE, QLQCSPAELQAELLHSQARSAELE is lower in protein stability index: 4.91 for the first, 4.7 for the second.

Going from QLQCSPAELQAELLHSQARYAELE to QLQCSPAELQAELLHSQMRLAELE, the protein stability index falls from 4.12 to 2.77.

Compared with QLQCSPAELQAELLHSQNRLAELE, QLQCSPAELQAELLHSQSRLAELE is higher in protein stability index: 3.12 for the first, 3.69 for the second.

First: QLQCSPAELQAELLHSQCRLAELE
Second: QLQCSPAELQAELLHSQWRLAELE
The protein stability index of the first is higher: 3.27 for the first, 2.18 for the second.

First: QLQCSPAELQAELLHSQQRLAELE
Second: QLQCSPAELQAELLHSQPRLAELE
The protein stability index of the first is lower: 3.66 for the first, 3.96 for the second.

First: QLQCSPAELQAELLHSQGRLAELE
Second: QLQCSPAELQAELLHSQIRLAELE
The protein stability index of the first is higher: 4.23 for the first, 3.13 for the second.

Going from QLQCSPAELQAELLHSQYRLAELE to QLQCSPAELQAELLHSQKRLAELE, the protein stability index falls from 2.81 to 2.77.

Going from QLQCSPAELQAELLHSQERLAELE to QLQCSPAELQAELLHSQLRLAELE, the protein stability index falls from 3.95 to 2.68.

Going from QLQCSPAELQAELLHSQRRLAELE to QLQCSPAELQAELLHSQTRLAELE, the protein stability index rises from 3.24 to 3.42.

First: QLQCSPAELQAELLHSQVRLAELE
Second: QLQCSPAELQAELLHSQHRLAELE
The protein stability index of the first is higher: 2.98 for the first, 2.85 for the second.

Compared with QLQCSPAELQAELLHSQDRLAELE, QLQCSPAELQAELLHSQFRLAELE is lower in protein stability index: 4.03 for the first, 2.82 for the second.

Going from QLQCSPAELQAELLHSQATLAELE to QLQCSPAELQAELLHSQACLAELE, the protein stability index falls from 3.88 to 2.84.

Compared with QLQCSPAELQAELLHSQAGLAELE, QLQCSPAELQAELLHSQANLAELE is higher in protein stability index: 4.16 for the first, 4.2 for the second.

First: QLQCSPAELQAELLHSQAILAELE
Second: QLQCSPAELQAELLHSQADLAELE
The protein stability index of the first is lower: 1.99 for the first, 4.27 for the second.

Going from QLQCSPAELQAELLHSQAFLAELE to QLQCSPAELQAELLHSQAHLAELE, the protein stability index rises from 2.12 to 3.34.

First: QLQCSPAELQAELLHSQASLAELE
Second: QLQCSPAELQAELLHSQAMLAELE
The protein stability index of the first is higher: 4.45 for the first, 1.97 for the second.

First: QLQCSPAELQAELLHSQAPLAELE
Second: QLQCSPAELQAELLHSQAVLAELE
The protein stability index of the first is higher: 4.61 for the first, 2.55 for the second.

Compared with QLQCSPAELQAELLHSQAQLAELE, QLQCSPAELQAELLHSQAELAELE is lower in protein stability index: 2.94 for the first, 2.89 for the second.

Compared with QLQCSPAELQAELLHSQALLAELE, QLQCSPAELQAELLHSQAYLAELE is higher in protein stability index: 1.79 for the first, 1.89 for the second.

Going from QLQCSPAELQAELLHSQAKLAELE to QLQCSPAELQAELLHSQAWLAELE, the protein stability index falls from 3.05 to 2.12.

First: QLQCSPAELQAELLHSQAALAELE
Second: QLQCSPAELQAERLHSQARLAELE
The protein stability index of the first is lower: 2.6 for the first, 4.31 for the second.

First: QLQCSPAELQAEWLHSQARLAELE
Second: QLQCSPAELQAEVLHSQARLAELE
The protein stability index of the first is lower: 4.13 for the first, 4.2 for the second.

First: QLQCSPAELQAESLHSQARLAELE
Second: QLQCSPAELQAEYLHSQARLAELE
The protein stability index of the first is higher: 4.74 for the first, 4.52 for the second.

First: QLQCSPAELQAETLHSQARLAELE
Second: QLQCSPAELQAELLHQQARLAELE
The protein stability index of the first is higher: 4.7 for the first, 4.06 for the second.

Going from QLQCSPAELQAELLHPQARLAELE to QLQCSPAELQAELLHGQARLAELE, the protein stability index rises from 4.17 to 4.86.

Compared with QLQCSPAELQAELLHTQARLAELE, QLQCSPAELQAELLHIQARLAELE is lower in protein stability index: 2.95 for the first, 2.81 for the second.

Compared with QLQCSPAELQAELLHYQARLAELE, QLQCSPAELQAELLHNQARLAELE is higher in protein stability index: 3.49 for the first, 4.33 for the second.

First: QLQCSPAELQAELLHFQARLAELE
Second: QLQCSPAELQAELLHRQARLAELE
The protein stability index of the first is lower: 3.78 for the first, 4.02 for the second.

Going from QLQCSPAELQAELLHCQARLAELE to QLQCSPAELQAELLHEQARLAELE, the protein stability index rises from 4.23 to 4.81.

Compared with QLQCSPAELQAELLHAQARLAELE, QLQCSPAELQAELLHVQARLAELE is higher in protein stability index: 2.88 for the first, 4.15 for the second.

Going from QLQCSPAELQAELLHHQARLAELE to QLQCSPAELQAELLHWQARLAELE, the protein stability index falls from 4.46 to 3.35.

Going from QLQCSPAELQAELLHLQARLAELE to QLQCSPAELQAELLHDQARLAELE, the protein stability index rises from 3.91 to 5.03.

Going from QLQCSPAELQAELLHKQARLAELE to QLQCSPAELQAELLHMQARLAELE, the protein stability index falls from 3.9 to 3.33.
